From patent publication US20130177556 come the findings set out here.

Read-outs that look alike come from different tables or passages of the source.

Series [1] deals with EGFR on A549 cells (Homo sapiens) (UniProt P00533).
The target of series [2] is EGFR extracellular domain (EC-EGFR) (Homo sapiens) (UniProt P00533). Kind of series: filter. The following applies: 2'-F pyrimidines (all C and U); PBS, 0.01% BSA, 37 C, 15 min; scrambled background subtracted.
In series [3] the target is EGFR on A549 cells (Homo sapiens) (UniProt P00533). Put plainly: cell_activity. The following applies: 2'-F pyrimidines (all C and U); inhibition of EGF-dependent EGFR phosphorylation in A549, 200 nM aptamer.

Consider “GCCUUAGUAACGUGCUUUGAUGUCGAUUCGACAGGAGGC [CL4 42-81]”, for which the Kd in series [1] (2'-F pyrimidines (all C and U), binding to whole A549 cells, radiolabelled aptamer) came to 38 nM; in series [2], 10 nM. Moreover, the activity in series [3] worked out at 60 % inhibition.
“GGGAGACAAGAAUAAACGCUCAACGACACGUUGCCAGCCGGAGCCUUAGUAACGUGCUUUGAUGUCGAUUCGACAGGAGGCUCACAACAGGC [CL4]” had a dissociation constant Kd in series [1] (2'-F pyrimidines, Kd stated for full-length CL4, whole A549 cells implied) of 46 nM.

What is called Kd is the equilibrium constant for the complex coming apart. The low end stands for higher affinity, the high end for lower affinity.
